According to the supplement of paper PMC9732359:
± gives the uncertainty stated by the source.

Assay: protein stability index of a GFP-peptide fusion (yeast GPS) (PSI 1-4); higher = more stable; sorted into four equal gates, so the index is relative within each strain
Outline: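 Peptides tiling yeast proteins in 17-residue segments were fused downstream of GFP, with Cherry expressed from the same plasmid. As a pooled library in yeast, mid-log cultures grown in leucine-free medium were sorted into four equal gates by GFP/Cherry fluorescence ratio. Gate plasmids were PCR-amplified and Illumina-sequenced, and barcodes linked reads to strains. Each peptide received a protein stability index equal to the sum of each gate's read frequency times its gate number.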

Row | Sequence | protein stability index (doa10∆) | protein stability index (pdr5∆) | protein stability index (san1∆) | protein stability index (ubr1∆)
1 | TELMNRSPLVTPMDESS [SRP72] | 2.52 ± 0.071 | 2.58 ± 0.07 | 3.03 ± 0.076 | 2.59 ± 0.062
2 | QVPSSLIVRAKNHTHNL [RRP4] | 2.56 ± 0.076 | 2.89 ± 0.06 | 2.67 ± 0.072 | 2.87 ± 0.055
3 | EDDDIRSRMLPTITLDD [SNF5] | 2.46 ± 0.15 | 3.07 ± 0.18 | – | 3.44 ± 0.14
4 | VIVPQIVLDEVRNKSYP [DIS3] | 2.68 ± 0.066 | 2.33 ± 0.089 | 2.79 ± 0.11 | 1.46 ± 0.04
5 | CNERVPLSVATELMNRS [SRP72] | 2.43 ± 0.033 | 2.52 ± 0.044 | 2.26 ± 0.052 | 2.19 ± 0.036
6 | DRKNRAPPQRPRFNRDN [RPS26B] | 1.87 ± 0.2 | 1.4 ± 0.15 | – | 3.04 ± 0.16
7 | ILGDLGKEFGTTPEKPE [FAS2] | 2.83 ± 0.087 | 2.69 ± 0.072 | 2.51 ± 0.057 | 2.78 ± 0.066
8 | MSVQDTKAVEFSMGHIR [MED4] | 3.24 ± 0.11 | 3.37 ± 0.093 | 3.22 ± 0.069 | 2.9 ± 0.088
9 | KGKKYQPKDLRAKKTRA [RPL35A] | 2.85 ± 0.25 | 2.98 ± 0.14 | 2.46 ± 0.13 | 2.89 ± 0.12
10 | DITGIRDVSDDVFDTLA [GRR1] | 3.02 ± 0.12 | 3.04 ± 0.07 | 2.95 ± 0.075 | 2.97 ± 0.067
11 | ENEDGNIEERKEKIQHE [BRR2] | 3.23 ± 0.14 | 3.47 ± 0.1 | 3.57 ± 0.092 | 3.3 ± 0.15
12 | VEEKPGDRGALARASGN [RPL2A] | 2.95 ± 0.12 | 3.23 ± 0.13 | 3.37 ± 0.092 | 3.13 ± 0.11
13 | KAVKLRKSYKNQIADLS [ROX3] | 2.74 ± 0.1 | 2.85 ± 0.07 | 2.77 ± 0.095 | 2.95 ± 0.037
14 | INIKYLRLDGHTKSDER [SNF2] | 3.1 ± 0.083 | 2.11 ± 0.063 | 2.29 ± 0.098 | 2.79 ± 0.063
15 | IRIYFTEKDDNKTNNED [NUT1] | 2.82 ± 0.1 | 2.95 ± 0.071 | 2.84 ± 0.13 | 2.87 ± 0.074
16 | TTTTTTTNNNNTNNNNT [SWI1] | 3.18 ± 0.034 | 3.18 ± 0.05 | 3.303 ± 0.021 | 3.465 ± 0.024
17 | AKLRKELVETSEVRKAV [FAS2] | 2.7 ± 0.16 | – | – | 1.38 ± 0.25
18 | LGYPPISLVDDIINAVN [MTW1] | 2.46 ± 0.076 | 2.14 ± 0.065 | 2.44 ± 0.063 | 1.94 ± 0.069
19 | KIIEDLRQKHEFLEDFD [SMC2] | 2.96 ± 0.097 | 2.54 ± 0.077 | 2.6 ± 0.087 | 2.94 ± 0.17
20 | PMETLLSGLSADKPFTR [YML031W/NDC1] | 2.91 ± 0.05 | 3.04 ± 0.05 | 2.94 ± 0.037 | 2.85 ± 0.034
21 | FNKNLGKGPGCGFWQPA [PRP8] | 3.18 ± 0.16 | 3.25 ± 0.15 | 3.39 ± 0.14 | 3.54 ± 0.075
22 | PAMAMEDLKNFIFQIIE [SRB8] | 2.62 ± 0.065 | 2.9 ± 0.074 | 2.73 ± 0.078 | 1.71 ± 0.05
23 | SRGNGGKKVLNKNQLLK [POP1] | 1.86 ± 0.14 | 2.54 ± 0.11 | 2.53 ± 0.14 | 3.43 ± 0.11
24 | DPSRELNVIIDQLAVSP [YCS4] | 2.79 ± 0.055 | 3.04 ± 0.062 | 2.72 ± 0.053 | 2.67 ± 0.05
25 | YQRKRLVTQHKAKYNTP [RPL5] | 3.21 ± 0.3 | 2.8 ± 0.2 | – | –
26 | QSFQNPFTASQSNINTN [YIL149C/MLP2] | 2.57 ± 0.067 | 2.55 ± 0.044 | 2.62 ± 0.053 | 2.73 ± 0.043
27 | KNQHRAASWYGSFNEMK [RMP1] | 2.89 ± 0.048 | 3.21 ± 0.055 | 3.12 ± 0.042 | 3.18 ± 0.038

Row | Sequence | protein stability index (doa10∆) | protein stability index (pdr5∆) | protein stability index (san1∆) | protein stability index (ubr1∆)
28 | SSFKEDCLSFAPTLSQT [SSN2] | 2.7 ± 0.084 | 2.67 ± 0.1 | 3.03 ± 0.086 | 2.91 ± 0.052
29 | FVMKTRRRKGISTGGFM [SNU114] | 3.44 ± 0.15 | – | – | 3.18 ± 0.11
30 | SHLVVPYCPIASITGTG [YMR129W/POM152] | 1.36 ± 0.065 | 1.37 ± 0.066 | 1.33 ± 0.1 | 1.36 ± 0.03
31 | TGLNGSGKSNILDAICF [SMC2] | 3.4 ± 0.12 | 2.98 ± 0.093 | 3.28 ± 0.063 | 3.31 ± 0.054
32 | TQVALNESEKDQWLEEY [UBP6] | 3 ± 0.1 | 2.55 ± 0.07 | 2.66 ± 0.077 | 2.88 ± 0.055
33 | QDRQQLLPLVVSNISCL [ECM29] | 1.38 ± 0.046 | 1.38 ± 0.036 | 1.29 ± 0.074 | 1.29 ± 0.034
34 | LFGSKPQGSTTNGGLFG [YGR119C/NUP57] | 3.38 ± 0.086 | 3.47 ± 0.067 | 3.43 ± 0.045 | 3.28 ± 0.037
35 | AMVEKYAPDVVRSLENL [RRP42] | 2.59 ± 0.13 | 2.81 ± 0.067 | 2.65 ± 0.052 | 3.14 ± 0.038
36 | SDLVNQGIIYAKVNRPA [RPN5] | 2.97 ± 0.15 | 3.66 ± 0.26 | 2.84 ± 0.17 | –
37 | LTFMTCNSLHIPQDFEN [ESC2] | 2.17 ± 0.045 | 2.46 ± 0.047 | 2.19 ± 0.089 | 2.66 ± 0.04
38 | KVISNPLLARKQFVVDV [RPS24A] | 1.95 ± 0.088 | 1.94 ± 0.048 | 2.14 ± 0.076 | 2.07 ± 0.05
39 | VHPRKSYKMNSSAADIT [PRP8] | 2.77 ± 0.079 | 2.88 ± 0.075 | 2.88 ± 0.053 | 2.74 ± 0.058
40 | PEIDNLDDLVVLKKKNI [RRP6] | 2.37 ± 0.067 | 2.15 ± 0.052 | 2.59 ± 0.089 | 2.79 ± 0.066
41 | SRFSPEKLAVSALEQAI [YGL100W/SEH1] | 2.19 ± 0.098 | 2.36 ± 0.12 | 1.9 ± 0.077 | 2.42 ± 0.13
42 | EYSPEILQIREEIPSKS [RRP6] | 2.66 ± 0.068 | 2.79 ± 0.08 | 2.54 ± 0.072 | 2.88 ± 0.044
43 | NTYKRLVIGIFKRDLLR [YJL039C/NUP192] | 2.5 ± 0.082 | 1.58 ± 0.083 | 1.31 ± 0.13 | 1.59 ± 0.055
44 | NLSRYPKSGIDIFVYLT [MTR3] | 2.35 ± 0.049 | 1.97 ± 0.052 | 2.07 ± 0.079 | 2.27 ± 0.054
45 | CVHMVYEYAEHDLLQII [SSN3] | 2.26 ± 0.086 | 2.21 ± 0.089 | 2.12 ± 0.11 | 2.48 ± 0.08
46 | VLSPDSNIMSDSKKIKV [GAL11] | 2.03 ± 0.13 | 2.42 ± 0.095 | 2.44 ± 0.12 | 2.21 ± 0.12
47 | FINNVLSNPSNQNICTS [GRR1] | 2.42 ± 0.074 | 2.31 ± 0.033 | 2.53 ± 0.054 | 2.47 ± 0.037
48 | VKVVDAGNKVGQSEASL [RPP0] | – | 3.58 ± 0.22 | – | –
49 | YASKINRAEGPEELARI [RGR1] | 3.31 ± 0.12 | 3.26 ± 0.085 | 3.31 ± 0.067 | 3.24 ± 0.071
50 | NNSNNNNIIRIQQLISQ [SNF11] | 2.25 ± 0.06 | 2.39 ± 0.075 | 2.54 ± 0.08 | 2.69 ± 0.046
51 | EEITCALDYLIPPPMPK [MED7] | 1.86 ± 0.083 | 2.73 ± 0.21 | 2.06 ± 0.16 | 2.28 ± 0.071
52 | LKEYQSKIIVFPRDGKA [RPL13B] | 2.95 ± 0.082 | 3.17 ± 0.072 | 3.22 ± 0.048 | 3.17 ± 0.054
53 | GLVNHRVGVKLKFNSTE [SMX3] | 2.48 ± 0.052 | 2.24 ± 0.04 | 1.94 ± 0.056 | 1.48 ± 0.036
54 | DPNNPVDFDGLDIKRVG [SNF12] | 3.5 ± 0.087 | 3.32 ± 0.086 | 3.32 ± 0.097 | 3.25 ± 0.063
